Drawing on patent US20090221680, “Aptamers that bind thrombin with high affinity” (published 2009), this text covers binding signal and Kd for 42 molecules.

One data set addresses prothrombin (Homo sapiens, UniProt P00734 P00734:44-622). The data set is described as follows: filter; 50 nM prothrombin. The note with it: tags: Athens Research. As to the method: Dot blot binding assays were performed throughout the selections to monitor the protein binding affinity of the pools. Trace ³²P-labeled RNA was combined with a dilution series of human Thrombin (1 nM-1000 nM) and incubated at room temperature for 30 minutes in 1×DPBS (w/ Ca²⁺ and Mg²⁺) (Gibco, Catalog #14040, Invitrogen, Carlsbad, Calif.) plus 0.1 mg/ml BSA in a final volume of 30 μl. The binding reactions were analyzed by nitrocellulose filtration using a Minifold I dot-blot, 96-well vacuum filtration manifold (Schleicher & Schuell, Keene, N.H.). A three-layer filtration medium was used, consisting (from top to bottom) of Protran nitrocellulose (Schleicher & Schuell, Keene, N.H.), Hybond-P nylon (Amersham Biosciences, Piscataway, N.J.) and GB002 gel blot paper (Schleicher & Schuell, Keene, N.H.). RNA that is bound to protein is captured on the nitrocellulose filter, whereas the non-protein bound RNA is captured on the nylon filter. The gel blot paper was included simply as a supporting medium for the other filters. Following filtration, the filter layers were separated, dried and exposed on a phosphor screen (Amersham Biosciences, Piscataway, N.J.) and quantified using a Storm 860 Phosphorimager® blot imaging system (Amersham Biosciences, Piscataway, N.J.).
Based on pool binding monitored throughout the selections as described above, Round 9 Pools from both Selection #2 and #3 were also cloned using a TOPO TA Cloning kit (Invitrogen, Carlsbad, Calif.) according to manufacturer's instructions, and sequenced. Of the 136 sequences obtained from Round 9 of both selections, 130 unique sequences were selected for assaying in a single-point dot blot screen against thrombin and prothrombin to test for selective binding to thrombin. Clones were ordered from IDT (Coralville, Iowa) at 25 μmole synthesis scale. Clone transcripts were 5′ end labeled with γ̅³²P ATP and spin purified with Centrisep columns (Princeton Separations, Adelphia, N.J.) to remove excess label. Trace amounts of labeled clone were incubated with +/−10 nM Thrombin (or +/−50 nM prothrombin) and 0.1 mg/ml BSA in a total volume of 30 μl 1×DPBS (w/ Ca²⁺ and Mg²⁺) (Gibco, Catalog #14040, Invitrogen, Carlsbad, Calif.) for 30 minutes. Post incubation, the binding reaction applied the dot-blot binding assay apparatus previously described.

Data set [1] concerns the target T1, thrombin (alpha-thrombin) (Homo sapiens, UniProt P00734;P00734 P00734:315-363,P00734:364-622). In words: filter; 10 nM thrombin.
Data set [2] concerns the target T1, thrombin (alpha-thrombin). The data set is described as follows: filter.

B1: AMX(399)_F1 (ssDNA)
DNA: TCCCGTGATCTCTGGGGTAACGTCTTGGTGTGGGTGGCTGAGGATCGATC
Consider B1, for which the binding signal with prothrombin worked out at 19.4 % bound; in data set [1] it was 16.7 % bound.

B2: ARC2671 (ssDNA)
DNA: ACTGCCTAGGTTGGGTAGGGTGGTGGCAGT
modifications: PS linkage between nt 28 and 29
As a reminder, the Kd is the equilibrium constant for the complex coming apart. Lower therefore signals higher affinity. With B2, the dissociation constant Kd in data set [2] was found to be 0.158 nM. This lies in the sub-nanomolar range.

B3: AMX(399)_H2 (ssDNA)
DNA: TCCCGACTTTAGATCCGTGTTGGATGGCCTGGGTGGCTGAGGATCGATC
In data set [1], B3 came in with a binding signal of 5.49 % bound.

B4: ARC2672 (ssDNA)
DNA: ACTGCCTAGGTTGGGTAGGGTGGTGGCAGT
modifications: PS linkage between nt 29 and 30
In turn, B4 returned a Kd in data set [2] of 0.141 nM.

B5: AMX(399)_G6 (ssDNA)
DNA: TCCCATCGATCAGTGGTGGCTTGGCTGGTTTGGGTGGCTGAGGATCGATC
As for B5, the binding signal in the data set with prothrombin was determined as 38.6 % bound; in data set [1] it was 39.7 % bound.

B6: ARC2663 (ssDNA)
DNA: ACTGCCTAGGTTGGGTAGGGTGGTGGCAGT
modifications: PS linkage between nt 20 and 21
With B6, the Kd in data set [2] was 0.18 nM.

B7: ARC2658 (ssDNA)
DNA: ACTGCCTAGGTTGGGTAGGGTGGTGGCAGT
modifications: PS linkage between nt 15 and 16
In data set [2], B7 registered a Kd of 0.253 nM.

B8: AMX(399)_F10 (ssDNA)
DNA: TCCCGTCGGTCCGTTCGGTATTTTTTTCTGGGTGGCTGAGGATCGATC
B8: the figures for the binding signal (with prothrombin; in data set [1]) were 22.1 % bound and 21.3 % bound, respectively.

B9: ARC2667 (ssDNA)
DNA: ACTGCCTAGGTTGGGTAGGGTGGTGGCAGT
modifications: PS linkage between nt 24 and 25
For B9, in data set [2], the dissociation constant (Kd) came out at 0.459 nM.

B10: ARC2668 (ssDNA)
DNA: ACTGCCTAGGTTGGGTAGGGTGGTGGCAGT
modifications: PS linkage between nt 25 and 26
Molecule B10 displayed a Kd in data set [2] of 0.159 nM. Compared with the last molecule, the Kd is about 2.9-fold lower.

B11: AMX(399)_G3 (ssDNA)
DNA: TCCCATCGAACCTCGAGGGTATTGTTGGCTTGGGTGGCTGAGGATCGATC
As to B11, the binding signal with prothrombin turned out to be 22.6 % bound; in data set [1] it was 20.8 % bound.

B12: AMX(399)_F6 (ssDNA)
DNA: TCCCAAGATCGATGCTGGTAGTGTTTTCTGGGTGGCTGAGGATCGATC
Regarding B12, the binding signal with prothrombin was 11.9 % bound; in data set [1] it was 10 % bound.

B13: AMX(399)_F2 (ssDNA)
DNA: TCCCTTGATCCTGGTACATATATTTTCTGGGTGGCTGAGGATCGATC
For the molecule B13, the binding signal is 7.92 % bound with prothrombin and 7.37 % bound in data set [1].

B14: ARC2651 (ssDNA)
DNA: ACTGCCTAGGTTGGGTAGGGTGGTGGCAGT
modifications: PS linkage between nt 8 and 9
For B14, the Kd in data set [2] amounted to 0.111 nM. In other words, the sub-nanomolar range.

B15: ARC2660 (ssDNA)
DNA: ACTGCCTAGGTTGGGTAGGGTGGTGGCAGT
modifications: PS linkage between nt 17 and 18
As for B15, in data set [2], binding was put at a Kd of 0.23 nM. This Kd lies about 2.1-fold higher than the previous one.

B16: ARC2661 (ssDNA)
DNA: ACTGCCTAGGTTGGGTAGGGTGGTGGCAGT
modifications: PS linkage between nt 18 and 19
Regarding B16, binding in data set [2] was put at a Kd of 0.246 nM. This Kd and that of the molecule before are within 1.5-fold of each other.

B17: ARC2665 (ssDNA)
DNA: ACTGCCTAGGTTGGGTAGGGTGGTGGCAGT
modifications: PS linkage between nt 22 and 23
In the case of B17, in data set [2], the Kd was 0.121 nM.

B18: AMX(398)_B11 (ssDNA)
DNA: TCCCGCTCGATTTCGAAGAATGGTTGGTTTGGGTGGCTGAGGATCGATC
In data set [1], B18 returned a binding signal of 9.76 % bound.

B19: ARC2664 (ssDNA)
DNA: ACTGCCTAGGTTGGGTAGGGTGGTGGCAGT
modifications: PS linkage between nt 21 and 22
In data set [2], B19 yielded a dissociation constant Kd of 0.211 nM.

B20: AMX(399)_F7 (ssDNA)
DNA: TCCCGATCGGTCCCAAGGGTATTGTTGGTTTGGGTGGCTGAGGATCGATC
With B20, the binding signal was 34.2 % bound with prothrombin and 29.6 % bound in data set [1].

B21: AMX(399)_H4 (ssDNA)
DNA: TCCCGAGAGATTCAAAAGGGACTGGGCGGTTGGGTGGCTGAGGATCGATC
The molecule B21 came in with a binding signal in data set [1] of 7.7 % bound.

B22: AMX(399)_E12 (ssDNA)
DNA: TCCCGAGATCTTTATAGGGTATTGTTGGTTGGGGTGGCTGAGGATCGATC
Regarding B22, the binding signal with prothrombin was determined as 25.1 % bound; in data set [1], 20.3 % bound.

B23: AMX(399)_F9 (ssDNA)
DNA: TCCCGCTATTCGATCTTCAATTGGGTGGTCAGGGTGGCTGAGGATCGATC
Regarding B23, the binding signal with prothrombin turned out to be 26 % bound; in data set [1], 25.2 % bound.

B24: AMX(399)_G5 (ssDNA)
DNA: TCCCGGTATCGTCATGCTGGTGGAATTGGTTGGGTGGCTGAGGATCGATC
On to B24, for which the binding signal with prothrombin came to 18.9 % bound; in data set [1], 23.2 % bound.

B25: ARC2669 (ssDNA)
DNA: ACTGCCTAGGTTGGGTAGGGTGGTGGCAGT
modifications: PS linkage between nt 26 and 27
In turn, B25 yielded a Kd in data set [2] of 0.129 nM.

B26: ARC2649 (ssDNA)
DNA: ACTGCCTAGGTTGGGTAGGGTGGTGGCAGT
modifications: PS linkage between nt 6 and 7
With B26, binding in data set [2] was put at a Kd of 0.264 nM.

B27: ARC2650 (ssDNA)
DNA: ACTGCCTAGGTTGGGTAGGGTGGTGGCAGT
modifications: PS linkage between nt 7 and 8
Molecule B27 registered a Kd in data set [2] of 0.23 nM.

B28: ARC2648 (ssDNA)
DNA: ACTGCCTAGGTTGGGTAGGGTGGTGGCAGT
modifications: PS linkage between nt 5 and 6
The molecule B28 came in with a Kd in data set [2] of 0.128 nM.

B29: AMX(399)_F11 (ssDNA)
DNA: TCCCTATGGATTCGGGGTACGTTAGTTCTGGGTGGCTGAGGATCGATC
For the molecule B29, the binding signal stood at 35.7 % bound in the data set with prothrombin and 35.1 % bound in data set [1].

B30: ARC2670 (ssDNA)
DNA: ACTGCCTAGGTTGGGTAGGGTGGTGGCAGT
modifications: PS linkage between nt 27 and 28
In data set [2], B30 came in with a Kd of 0.16 nM.

B31: AMX(399)_G2 (ssDNA)
DNA: TCCCATCGTCTGTGGTATAGGAACTTCTGGGTGGCTGAGGATCGATC
Regarding B31, the binding signal came to 7.28 % bound with prothrombin and 18.8 % bound in data set [1].

B32: AMX(398)_C3 (ssDNA)
DNA: TCCCATGTGTTAGATCCGTGTGGTTGGACTGGGTGGCTGAGGATCGATC
B32 displayed a binding signal in data set [1] of 10.8 % bound.

B33: AMX(399)_G10 (ssDNA)
DNA: TCCCGATCGCTGTCCTAGGATGGGTAGGGTGGTGGCTGAGGATCGATC
In data set [1], B33 showed a binding signal of 38.4 % bound.

B34: ARC2657 (ssDNA)
DNA: ACTGCCTAGGTTGGGTAGGGTGGTGGCAGT
modifications: PS linkage between nt 14 and 15
The molecule B34 showed a Kd in data set [2] of 0.219 nM.

B35: ARC2654 (ssDNA)
DNA: ACTGCCTAGGTTGGGTAGGGTGGTGGCAGT
modifications: PS linkage between nt 11 and 12
Regarding B35, the Kd in data set [2] was 0.095 nM.

B36: AMX(399)_F3 (ssDNA)
DNA: TCCTTGTCGAGCCTTGGGGTAGTGTTGGTTTGGGTGGCTGAGGATCGATC
With B36, the binding signal in the data set with prothrombin was 8.7 % bound; in data set [1] it was 9.8 % bound.

B37: ARC2646 (ssDNA)
DNA: ACTGCCTAGGTTGGGTAGGGTGGTGGCAGT
modifications: PS linkage between nt 3 and 4
B37 returned a Kd in data set [2] of 0.169 nM.

B38: AMX(399)_F4 (ssDNA)
DNA: TCCCGTTCGGTCCGTATACTGGTGGTGGTTGGGTGGCTGAGGATCGATC
As to B38, the binding signal with prothrombin is 25 % bound; in data set [1] it was 28.1 % bound.

B39: ARC2647 (ssDNA)
DNA: ACTGCCTAGGTTGGGTAGGGTGGTGGCAGT
modifications: PS linkage between nt 4 and 5
For the molecule B39, in data set [2], the Kd was determined as 0.161 nM.

B40: ARC2652 (ssDNA)
DNA: ACTGCCTAGGTTGGGTAGGGTGGTGGCAGT
modifications: PS linkage between nt 9 and 10
In turn, B40 displayed a Kd in data set [2] of 0.192 nM.

B41: ARC2656 (ssDNA)
DNA: ACTGCCTAGGTTGGGTAGGGTGGTGGCAGT
modifications: PS linkage between nt 13 and 14
On to B41, for which, in data set [2], the affinity, expressed as Kd, was 0.151 nM.

B42: ARC2662 (ssDNA)
DNA: ACTGCCTAGGTTGGGTAGGGTGGTGGCAGT
modifications: PS linkage between nt 19 and 20
B42 showed a dissociation constant Kd in data set [2] of 0.165 nM. This Kd and that of the molecule before are within 1.5-fold of each other.
